Source: paper PMC5103296, “New structural insight of C-terminal region of Syntenin-1, enhancing the molecular dimerization and inhibitory function related on Syndecan-4 signaling” (Scientific Reports, 2016)
Like-named read-outs stand apart in the source and are kept apart here. Blank lines part the entries; values can stand above or below the molecule they belong to.

Tests used:
syndecan-4-YFP = syndecan-4-YFP (UniProt P34901); test: FRET or BRET; FRET after acceptor (YFP) photobleaching in REFs expressing syndecan-4-YFP and PKM-CFP
Chain of syndecan-4-YFP (P34901 24-202): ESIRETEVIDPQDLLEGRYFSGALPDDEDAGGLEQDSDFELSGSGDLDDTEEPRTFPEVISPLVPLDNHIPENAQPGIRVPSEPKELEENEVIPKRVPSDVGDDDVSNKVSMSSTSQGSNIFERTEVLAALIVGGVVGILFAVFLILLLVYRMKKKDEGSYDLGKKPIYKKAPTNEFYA

[1] = biological target: the molecule itself; test: SEC; HiLoad 16/600 Superdex 75; 20 mM sodium phosphate, 100 mM NaCl, 0.01% NaN3, 5 mM dithiothreitol, pH 7.0; mass from calibration with standards
[2] = biological target: the molecule itself; test: as above; remark: listed apart in the source
[3] = biological target: T1, syntenin-1 PDZ2 construct containing the C-terminal tail (PDZ2C); test: as above; conditions: both partners purified
T1 chain: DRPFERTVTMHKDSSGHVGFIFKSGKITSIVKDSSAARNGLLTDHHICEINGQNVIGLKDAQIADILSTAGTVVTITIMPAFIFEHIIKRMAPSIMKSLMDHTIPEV

[4] = biological target: the molecule itself; test: crystal structure; syntenin-1 mixed with 4C2 at a 1:4 molar ratio; micro batch under oil; 0.2 M lithium sulfate monohydrate, 0.1 M Tris hydrochloride pH 8.5, 30% PEG 4000; 2.8 Å

B1: His-tagged syntenin-1 (His-STN) (domain or fragment)
chain: AEIKQGIREVILCKDQDGKIGLRLKSVDNGIFVQLVQANSPASLVGLRFGDQVLQINGENCAGWSSDKAHKVLKQAFGEKITMTIRDRPFERTVTMHKDSSGHVGFIFKSGKITSIVKDSSAARNGLLTDHHICEINGQNVIGLKDAQIADILSTAGTVVTITIMPAFIFEHIIKRMAPSIMKSLMDHTIPEV
notes: syntenin-1 (STN), recombinant construct with PDZ1, PDZ2 and the C-terminal region; printed M.W 21.8 kDa; The residue numbers (H210, V211) fit the rat protein (surmised); also called STN-1; source: recombinant, purified (Ni-NTA)
- stoichiometry N [1]: 2
- stoichiometry N [2]: 2

B3: syndecan-4 cytoplasmic domain peptide corresponding to the C2 region (4C2) (peptide)
peptide: APTNEFYA
notes: C2 region of the cytoplasmic domain of rat syndecan-4, residues 195-202; Seen as a dimer in the crystal of the syntenin-1/4C2 complex; also called syndecan peptide; source: synthetic peptide (Anygen Inc.)
- binding result [4]: binds

Further lines, results first:

- FRET efficiency (syndecan-4-YFP): 6.39%
Molecule: PKC catalytic domain (PKM)-CFP (domain or fragment)

- stoichiometry N [3]: 2
B2: syntenin-1 PDZ2 construct containing the C-terminal tail (PDZ2C) (domain or fragment)
chain: DRPFERTVTMHKDSSGHVGFIFKSGKITSIVKDSSAARNGLLTDHHICEINGQNVIGLKDAQIADILSTAGTVVTITIMPAFIFEHIIKRMAPSIMKSLMDHTIPEV
modifications: limits not given; same start as PDZ2 through the native C-terminus, consistent with the printed 11.7 kDa; homodimer by gel filtration / limits not given; same start as PDZ2 through the native …
